Experiment [1] addresses human IL-13 (human). In words: cell-based or functional assay.
For experiment [2], the target named is human IL-13 (human). In words: BIAcore, IgG coupled to the chip, IL-13 in flow.
For experiment [3], the target named is human IL-13 (human). In words: BIAcore, IgG4 coupled to the chip, IL-13 in flow.
For experiment [4], the target named is native human IL-13 released from HDLM-2 cells (human). In words: cell-based or functional assay.
The target in experiment [5] is human IL-13 (human). In words: cell-based or functional assay. The source holds these as a separate data set.
The target of experiment [6] is T1, murine IL-13 (murine).
T1 chain: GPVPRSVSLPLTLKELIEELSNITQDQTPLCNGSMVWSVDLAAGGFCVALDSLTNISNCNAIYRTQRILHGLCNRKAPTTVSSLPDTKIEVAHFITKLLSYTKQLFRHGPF
In words: BIAcore, IgG4 coupled to the chip, IL-13 in flow.

Sequence of native human IL-13 released from HDLM-2 cells (human) (chain, as listed by the source): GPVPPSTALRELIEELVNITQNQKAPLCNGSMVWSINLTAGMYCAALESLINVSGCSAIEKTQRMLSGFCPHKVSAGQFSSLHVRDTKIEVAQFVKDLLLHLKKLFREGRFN
Sequence of human IL-13 (human) (chain, as listed by the source): as above

B1: BAK615E3 scFv (scFv, V domains shown)
VH: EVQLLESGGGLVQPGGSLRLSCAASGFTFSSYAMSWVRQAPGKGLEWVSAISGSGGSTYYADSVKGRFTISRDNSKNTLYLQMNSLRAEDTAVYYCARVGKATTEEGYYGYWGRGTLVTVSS
VL: NFMLTQPHSVSESPGKTVTISCTRSSGSIASNYVQWYQQRPGSAPTTVIYDDNQRPSGVPDRFSGSIDSSSNSASLTISGLKTEDEADYYCQSYDSNNDVFGGGTKVTVL
For B1, the “IC50, TF-1 cell proliferation” value in experiment [1] turned out to be 3 nM.

B2: BAK278D6 IgG (antibody, V domains shown)
VH: EVQLVQSGAEVKKPGASVKVSCKASGYTFRNYGLSWVRQAPGQGLEWMGWISANNGDTNYGQEFQGRITMTTETSTNTAHMELRSLRSDDTAVYYCVRDSSSNWARWFFDLWGKGTMVTVSS
VL: SYVLTQPPSVSVAPGQTARIPCGGNNIGSKLVHWYQQKPGQAPVLVVYDDGDRPSGIPERFSGSNSGNTATLTISRIDAGDEADYYCQVWDTGSDPVVFGGGTKLTVL
By Kd is commonly meant the equilibrium constant for the complex coming apart. Low values mean tighter binding, high ones weaker binding. One may read the koff as the rate constant with which the complex falls apart. Higher therefore signals fast dissociation. As a reminder, the kon is the rate constant with which the complex forms. For the molecule B2, in experiment [2], the Kd turned out to be 13.5 nM, the koff amounted to 0.00741 s⁻¹ and the association rate constant (kon) came out at 549000 M⁻¹ s⁻¹.

B3: BAK1183H4 IgG4 (antibody, V domains shown)
VH: QVQLVQSGAEVKKPGASVKVSCKASGYTFTNYGLSWVRQAPGQGLEWMGWINYDGGNTQYGQEFQGRVTMTTDTSTSTAYMELRSLRSDDTAVYYCARDSSSSWARWFFDLWGRGTLVTVSS
VL: SYVLTQPPSVSVAPGKTARITCGGNIIGSKLVHWYQQKPGQAPVLVIYDDGDRPSGIPERFSGSNSGNTATLTISRVEAGDEADYYCQVWDTGSDPVVFGGGTKLTVL
In experiment [3], B3 gave a dissociation constant Kd of 0.081 nM. Moreover, the “IC50, HDLM-2 cell proliferation” value in experiment [4] was determined as 3.5 nM.

B4: BAK1167F2 IgG4 (antibody, V domains shown)
VH: QVQLVQSGAEVKKPGASVKVSCKASGYTFEQTGVSWVRQAPGQGLEWMGWISANNGDTNYGQEFQGRVTMTTDTSTSTAYMELRSLRSDDTAVYYCARDSSSSWARWFFDLWGRGTLVTVSS
VL: SYVLTQPPSVSVAPGKTARITCGGNIIGSKLVHWYQQKPGQAPVLVIYDDGDRPSGIPERFSGSNSGNTATLTISRVEAGDEADYYCQVWDTGSDPVVFGGGTKLTVL
B4 displayed a dissociation constant Kd in experiment [3] of 0.136 nM. For the same molecule, in experiment [4], the “IC50, HDLM-2 cell proliferation” value stood at 1.1 nM.

B5: BAK502G9 scFv (scFv, V domains shown)
VH: QVQLVQSGAEVKKPGASVKVSCKASGYTFTNYGLSWVRQAPGQGLEWMGWISANNGDTNYGQEFQGRVTMTTDTSTSTAYMELRSLRSDDTAVYYCARDSSSSWARWFFDLWGRGTLVTVSS
VL: SYVLTQPPSVSVAPGKTARITCGGNIIGSKLVHWYQQKPGQAPVLVIYDDGDRPSGIPERFSGSNSGNTATLTISRVEAGDEADYYCQVWDTGSDPVVFGGGTKLTVL
For the molecule B5, the “IC50, TF-1 proliferation (Mean TF1)” value in experiment [5] came to 8 nM.

B6: BAK1183H4 scFv (scFv, V domains shown)
VH: QVQLVQSGAEVKKPGASVKVSCKASGYTFTNYGLSWVRQAPGQGLEWMGWINYDGGNTQYGQEFQGRVTMTTDTSTSTAYMELRSLRSDDTAVYYCARDSSSSWARWFFDLWGRGTLVTVSS
VL: SYVLTQPPSVSVAPGKTARITCGGNIIGSKLVHWYQQKPGQAPVLVIYDDGDRPSGIPERFSGSNSGNTATLTISRVEAGDEADYYCQVWDTGSDPVVFGGGTKLTVL
Consider B6, for which, in experiment [5], the “IC50, TF-1 proliferation (Mean TF1)” value is 0.2 nM.

B7: BAK1167F2 scFv (scFv, V domains shown)
VH: QVQLVQSGAEVKKPGASVKVSCKASGYTFEQTGVSWVRQAPGQGLEWMGWISANNGDTNYGQEFQGRVTMTTDTSTSTAYMELRSLRSDDTAVYYCARDSSSSWARWFFDLWGRGTLVTVSS
VL: SYVLTQPPSVSVAPGKTARITCGGNIIGSKLVHWYQQKPGQAPVLVIYDDGDRPSGIPERFSGSNSGNTATLTISRVEAGDEADYYCQVWDTGSDPVVFGGGTKLTVL
Regarding B7, the “IC50, TF-1 proliferation (Mean TF1)” value in experiment [5] is 0.2 nM.

B8: BAK502G9 IgG4 (antibody, V domains shown)
VH: QVQLVQSGAEVKKPGASVKVSCKASGYTFTNYGLSWVRQAPGQGLEWMGWISANNGDTNYGQEFQGRVTMTTDTSTSTAYMELRSLRSDDTAVYYCARDSSSSWARWFFDLWGRGTLVTVSS
VL: SYVLTQPPSVSVAPGKTARITCGGNIIGSKLVHWYQQKPGQAPVLVIYDDGDRPSGIPERFSGSNSGNTATLTISRVEAGDEADYYCQVWDTGSDPVVFGGGTKLTVL
Turning to B8, the “IC50, HDLM-2 cell proliferation” value in experiment [4] is 4.6 nM.

B9: BAK209B11 human IgG4 (antibody, V domains shown)
VH: VQLQESGGGGLVQPGGSLRLSCAASGFTFSSYGMSWVRQAPGKGLEWVSSISASGDSTFYADSVKGRFTISRDNNKNMVFLQVNSLRADDTAVYFCAKDWSQWLVGDAFDVWGRGTTVTVSS
VL: DIQLTQSPSTLSASVGDRVTITCRASQSVSLWVAWYQQRPGKAPKLLIYDGSTLQSGVPARFSGSGSGTEFTLTISSLQPDDFATYYCQQYKTFSTFGQGTKVEIKR
For the molecule B9, in experiment [6], the Kd was 5.1 nM, the dissociation rate constant (koff) was determined as 0.0198 s⁻¹ and the association rate constant (kon) is 3.9e+06 M⁻¹ s⁻¹.

These data come from US7935343B2 (MedImmune Limited, dated 2011).
